Measurements: article PMC7042713

Legend:
Test in all cases: SEC-MALS
[1] = biological target: AtSOK1 DIX domain D78A; details: 2mg/ml D78A; parent value is 2mg/ml wt; calculated monomer mass of AtSOK1 DIX 25 kD (panel A); parent: 87
[2] = biological target: BhDIX K82A; details: monomer mass of BhDIX printed in panel as 24kD; parent: 90
[3] = biological target: BhDIX L8A; details: parent: est. 9.0e4; read off a plot
[4] = biological target: BhDIX Y10A; details: parent: est. 9.0e4; read off a plot
[5] = biological target: CpDIX D67A; details: monomer mass of CpDIX printed in panel as 22kD; parent: 90

With “AtSOK1 DIX domain (Arabidopsis thaliana SOSEKI1), wild type D78A” the other: observed molar mass (SEC-MALS, self-association) [1] was 25 kD.

Substance Blastocystis hominis DIX domain K82A has an other: observed molar mass (SEC-MALS, self-association) [2] of 23 kD.

Work on Blastocystis hominis DIX domain L8A yielded an other: observed molar mass (SEC-MALS, self-association) [3] of 55000 g/mol.

Blastocystis hominis DIX domain Y10A showed an other: observed molar mass (SEC-MALS, self-association) [4] of 35000 g/mol.

For Cryptosporidium parvum DIX domain D67A, the other: observed molar mass (SEC-MALS, self-association) [5] was 22 kD.
